The assay deals with recombinant human LIF, histidine-tagged (hLIF-His) (human, UniProt P15018 23-202). The assay can be described thus: FACS. Background: Flow cytometry measures light scatter and fluorescence of single cells or particles in a stream.
Sequence of recombinant human LIF, histidine-tagged (hLIF-His) (P15018 23-202): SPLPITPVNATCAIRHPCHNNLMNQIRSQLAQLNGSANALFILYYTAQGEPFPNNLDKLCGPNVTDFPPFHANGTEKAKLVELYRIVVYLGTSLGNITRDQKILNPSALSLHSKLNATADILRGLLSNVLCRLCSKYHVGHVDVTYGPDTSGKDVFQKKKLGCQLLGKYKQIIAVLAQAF

B1: yeast-displayed eLIFR CBM I–Ig-like–CBM II domains (designed binder)
chain: QKKGAPHDLKCVTNNLQVWNCSWKAPSGTGRGTDYEVCIENRSRSCYQLEKTSIKIPALSHGDYEITINSLHDFGSSTSKFTLNEQNVSLIPDTPEILNLSADFSTSTLYLKWNDRGSVFPHRSNVIWEIKVLRKESMELVKLVTHNTTLNGKDTLHHWSWASDMPLECAIHFVEIRCYIDNLHFSGLEEWSDWSPVKNISWIPDSQTKVFPQDKVVPVGSDITFCCVSQEKVLSALIGRTNCPLIHLDGENVAIKVRNVSASASSGTNVVFITEDDIFGTVIFAGYPPDTPQQLNCETHDLKEIICSWNPGRVTALVGPRATSYTLVESFSGKYVRLKRAEAPTNESYQLLFQMLPNQEIYNFTLNAHNPLGRSQSTILVNITEKVYPHTPTSFKVKDINSTAVKLSWHLPGNFAKINFLCEIEIKKSNSVQEQRNVTIKGVENSSYLVALDKLNPYTLYTFRIRCSTETFWKWSKWSNKKQHLTTEAS
With B1, the dissociation constant Kd turned out to be 0.014 nM.

A word on the Kd: it is a measure of binding affinity in units of concentration.
